# Data as given in patent US9468682B2, “Compositions and methods for enhancing penetration of biologically active substances into tissues or organs” (Joint-stock company “High Tech”, priority 2013, dated 2016).
# B1: Fe-superoxide dismutase from E. coli: Fe-superoxide dismutase from E. coli, labeled with 3H (protein, UniProt P0AGD3 2-193, looked up)
# Superoxide dismutase [Fe]: SFELPALPYAKDALAPHISAETIEYHYGKHHQTYVTNLNNLIKGTAFEGKSLEEIIRSSEGGVFNNAAQVWNHTFYWNCLAPNAGGEPTGKVAEAIAASFGSFADFKAQFTDAAIKNFGSGWTWLVKNSDGKLAIVSTSNAGTPLTTDATPLLTVDVWEHAYYIDYRNARPGYLEHFWALVNWEFVAKNLAA
# modifications: tritium (3H) label
# Tests used:
# [1] = Franz diffusion cell skin permeability for insulin, antibiotics and mesotherapy components; conditions: FIG. 1; donor insulin 5 IU/ml or 0.25 mg/ml; HPLC
# Excerpt: The receptor solution aliquots were collected at different intervals and analyzed using HPLC.
# [2] = Delivery through skin and mucous membranes in animals; format: in vivo; conditions: with ammonium sulfate; rats and guinea pigs
# [3] = In vitro skin permeability, Franz diffusion cell, 3H-labeled substances; conditions: Table 4
# Method: The vertical Franz diffusion cell was used (PermeGear, Bethlehem, USA) with the effective diffusion surface of 2 cm^2.
# The experiments were carried out using the skin of male species of Sprague-Dawley rats, weight 110-120 g, taken from the front abdominal wall. Hair and adipose tissue were removed from the skin; the skin was soaked in normal saline and placed into the diffusion cell. The following solutions labeled with ^3H in accordance with the standard method (Klimova et. al. 1993) were added into the donor chamber: complex of collagenolytic digestive protease from hydrobionts (Fermencol™, Table 3), Fe-superoxide dismutase from E. coli (Table 4) and fragments of rRNA 25-55 bases in length (Table 5).
molecule,measurement,setting,value
insulin,Effect of further increase of ammonium sulfate concentration on insulin diffusion from donor to acceptor solution,[1],does not influence the effectiveness of insulin diffusion
same,Delivery through skin and mucous membranes,[2],Positive results
B1,"^3H-labeled marker in receptor medium, % from initial","[3]; ammonium sulfate 0 M in donor medium, incubation 10 hrs",0.01%
same,"^3H-labeled marker in receptor medium, % from initial","[3]; ammonium sulfate 0 M in donor medium, incubation 20 hrs",0.05%
same,"^3H-labeled marker in receptor medium, % from initial","[3]; ammonium sulfate 0 M in donor medium, incubation 30 hrs",0.07%
same,"^3H-labeled marker in receptor medium, % from initial","[3]; ammonium sulfate 0 M in donor medium, incubation 40 hrs",0.11%
same,"^3H-labeled marker in receptor medium, % from initial","[3]; ammonium sulfate 0 M in donor medium, incubation 60 hrs",0.34%
same,"^3H-labeled marker in receptor medium, % from initial","[3]; ammonium sulfate 0.1 M in donor medium, incubation 10 hrs",5.31%
same,"^3H-labeled marker in receptor medium, % from initial","[3]; ammonium sulfate 0.1 M in donor medium, incubation 20 hrs",10.00%
same,"^3H-labeled marker in receptor medium, % from initial","[3]; ammonium sulfate 0.1 M in donor medium, incubation 30 hrs",12.06%
same,"^3H-labeled marker in receptor medium, % from initial","[3]; ammonium sulfate 0.1 M in donor medium, incubation 40 hrs",17.99%
same,"^3H-labeled marker in receptor medium, % from initial","[3]; ammonium sulfate 0.1 M in donor medium, incubation 60 hrs",20.11%
same,"^3H-labeled marker in receptor medium, % from initial","[3]; ammonium sulfate 0.2 M in donor medium, incubation 10 hrs",5.67%
same,"^3H-labeled marker in receptor medium, % from initial","[3]; ammonium sulfate 0.2 M in donor medium, incubation 20 hrs",12.56%
same,"^3H-labeled marker in receptor medium, % from initial","[3]; ammonium sulfate 0.2 M in donor medium, incubation 30 hrs",17.90%
same,"^3H-labeled marker in receptor medium, % from initial","[3]; ammonium sulfate 0.2 M in donor medium, incubation 40 hrs",27.60%
same,"^3H-labeled marker in receptor medium, % from initial","[3]; ammonium sulfate 0.2 M in donor medium, incubation 60 hrs",35.11%
same,"^3H-labeled marker in receptor medium, % from initial","[3]; ammonium sulfate 0.5 M in donor medium, incubation 10 hrs",7.80%
same,"^3H-labeled marker in receptor medium, % from initial","[3]; ammonium sulfate 0.5 M in donor medium, incubation 20 hrs",10.81%
same,"^3H-labeled marker in receptor medium, % from initial","[3]; ammonium sulfate 0.5 M in donor medium, incubation 30 hrs",16.94%
same,"^3H-labeled marker in receptor medium, % from initial","[3]; ammonium sulfate 0.5 M in donor medium, incubation 40 hrs",31.00%
same,"^3H-labeled marker in receptor medium, % from initial","[3]; ammonium sulfate 0.5 M in donor medium, incubation 60 hrs",35.30%
same,"^3H-labeled marker in receptor medium, % from initial","[3]; ammonium sulfate 1.0 M in donor medium, incubation 10 hrs",7.67%
same,"^3H-labeled marker in receptor medium, % from initial","[3]; ammonium sulfate 1.0 M in donor medium, incubation 20 hrs",10.33%
same,"^3H-labeled marker in receptor medium, % from initial","[3]; ammonium sulfate 1.0 M in donor medium, incubation 30 hrs",16.74%
same,"^3H-labeled marker in receptor medium, % from initial","[3]; ammonium sulfate 1.0 M in donor medium, incubation 40 hrs",31.00%
same,"^3H-labeled marker in receptor medium, % from initial","[3]; ammonium sulfate 1.0 M in donor medium, incubation 60 hrs",35.11%
